Experimental data from patent publication US20150079071A1 (University of California, published 2015).

Key:
[1] = target: T1, heat-shock protein 90β (HSP90β), endogenous, in conditioned medium of SCp2 cells (mouse, UniProt P11499 2-724); experiment: reverse co-IP of HSP90β protein complexes from CM of control SCp2 cells, Western blot
T1 construct: also called HSP90b; extracellular HSP90β
Experimental: For co-IP of HSP90β protein complexes, CM was incubated with 10 μg of control rabbit IgG or anti-HSP90β antibody for 16 h at 4° C. Precipitation was performed with protein G sepharose beads (17-0618-01, GE Healthcare) for 4 h at 4° C. The beads were then washed three times with 0.05% Tween/PBS, and the immune complexes were directly eluted with electrophoresis sample buffer and analyzed by Western blotting.

[2] = target: T2, Itgb1 (endogenous mouse integrin-beta1 of EpH4 mammary epithelial cells) (mouse, UniProt P09055 21-798); experiment: anti-FLAG M2 bead IP from EpH4 lysate, Western blot for Itgb1
T2 construct: Endogenous protein in EpH4 cell lysate; also called integrin-β1
T2 sequence (P09055 21-798 limits assumed): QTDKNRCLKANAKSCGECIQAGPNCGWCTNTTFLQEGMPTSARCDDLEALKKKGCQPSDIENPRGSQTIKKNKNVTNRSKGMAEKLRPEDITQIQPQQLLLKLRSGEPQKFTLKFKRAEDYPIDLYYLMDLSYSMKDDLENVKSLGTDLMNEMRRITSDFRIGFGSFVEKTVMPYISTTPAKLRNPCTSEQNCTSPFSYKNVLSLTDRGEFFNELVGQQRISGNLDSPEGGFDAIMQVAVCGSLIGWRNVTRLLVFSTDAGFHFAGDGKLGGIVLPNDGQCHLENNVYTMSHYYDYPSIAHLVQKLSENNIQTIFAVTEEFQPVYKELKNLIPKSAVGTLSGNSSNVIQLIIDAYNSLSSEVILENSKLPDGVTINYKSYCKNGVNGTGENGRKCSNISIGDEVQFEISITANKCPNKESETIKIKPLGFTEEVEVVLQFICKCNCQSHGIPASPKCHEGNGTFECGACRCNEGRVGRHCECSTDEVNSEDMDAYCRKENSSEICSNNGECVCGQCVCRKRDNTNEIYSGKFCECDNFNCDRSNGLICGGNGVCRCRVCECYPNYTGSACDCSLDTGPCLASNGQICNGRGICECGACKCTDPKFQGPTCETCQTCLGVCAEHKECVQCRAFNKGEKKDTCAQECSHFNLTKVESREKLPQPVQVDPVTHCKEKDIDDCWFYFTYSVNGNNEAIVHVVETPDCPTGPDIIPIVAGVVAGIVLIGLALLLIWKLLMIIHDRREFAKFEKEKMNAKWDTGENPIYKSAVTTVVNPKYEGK
Excerpt: FIG. 14. […] The heat map indicator is presented to show the intensity of the FRET signal. (iv) Quantification of FRET signals. ˜200 FRET signals were quantified on each condition. Data are mean+/−S.E., (****) indicates p<0.001. […] Immuno-complexes are used for IP-WB analysis.

T1 sequence (P11499 2-724 limits assumed): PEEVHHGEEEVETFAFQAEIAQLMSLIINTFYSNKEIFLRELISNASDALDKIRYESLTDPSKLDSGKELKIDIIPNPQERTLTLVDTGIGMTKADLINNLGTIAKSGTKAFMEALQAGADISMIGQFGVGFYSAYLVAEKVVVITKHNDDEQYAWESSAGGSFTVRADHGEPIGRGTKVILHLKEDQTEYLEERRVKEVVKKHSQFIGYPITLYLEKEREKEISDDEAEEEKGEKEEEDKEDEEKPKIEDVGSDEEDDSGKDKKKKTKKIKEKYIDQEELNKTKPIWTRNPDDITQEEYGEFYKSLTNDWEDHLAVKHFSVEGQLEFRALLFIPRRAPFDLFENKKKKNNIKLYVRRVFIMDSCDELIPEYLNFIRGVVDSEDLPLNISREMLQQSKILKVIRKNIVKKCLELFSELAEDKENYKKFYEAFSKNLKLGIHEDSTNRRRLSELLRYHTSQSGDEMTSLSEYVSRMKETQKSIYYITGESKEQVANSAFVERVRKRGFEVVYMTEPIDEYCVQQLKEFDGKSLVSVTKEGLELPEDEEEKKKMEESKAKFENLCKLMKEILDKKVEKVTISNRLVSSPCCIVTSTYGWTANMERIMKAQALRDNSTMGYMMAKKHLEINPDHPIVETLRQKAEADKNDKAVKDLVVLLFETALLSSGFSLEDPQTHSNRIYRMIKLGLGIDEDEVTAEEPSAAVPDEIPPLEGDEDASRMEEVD

Binder | binding result [1] | binding result [2]
annexin A2 (ANXA2), endogenous, in conditioned medium of SCp2 cells (other, mouse, UniProt P07356 2-339, looked up) STVHEILCKLSLEGDHSTPPSAYGSVKPYTNFDAERDALNIETAVKTKGVDEVTIVNILTNRSNVQRQDIAFAYQRRTKKELPSALKSALSGHLETVILGLLKTPAQYDASELKASMKGLGTDEDSLIEIICSRTNQELQEINRVYKEMYKTDLEKDIISDTSGDFRKLMVALAKGRRAEDGSVIDYELIDQDARELYDAGVKRKGTDVPKWISIMTERSVCHLQKVFERYKSYSPYDMLESIKKEVKGDLENAFLNLVQCIQNKPLYFADRLYDSMKGKGTRDKVLIRIMVSRSEVDMLKIRSEFKRKYGKSLYYYIQQDTKGDYQKALLYLCGGDD | no binding | –
MMP14F-dCAT (FLAG tagged human MMP14, catalytic domain deleted mutant, deletion of Tyr112-Pro312) (enzyme, also called MMP14dCAT; not shown: FLAG tag) not shown | – | no binding
myristoylated alanine-rich C-kinase substrate (MARCKS), endogenous, in conditioned medium of SCp2 cells (other, mouse, UniProt P26645 2-309, looked up) GAQFSKTAAKGEATAERPGEAAVASSPSKANGQENGHVKVNGDASPAAAEPGAKEELQANGSAPAADKEEPASGSAATPAAAEKDEAAAATEPGAGAADKEAAEAEPAEPSSPAAEAEGASASSTSSPKAEDGAAPSPSSETPKKKKKRFSFKKSFKLSGFSFKKSKKESGEGAEAEGATAEGAKDEAAAAAGGEGAAAPGEQAGGAGAEGAAGGEPREAEAAEPEQPEQPEQPAAEEPQAEEQSEAAGEKAEEPAPGATAGDASSAAGPEQEAPAATDEAAASAAPAASPEPQPECSPEAPPAPTAE | no binding | –
